The values that follow come from article PMC8922245, “The Structure of the Arabidopsis PEX4-PEX22 Peroxin Complex—Insights Into Ubiquitination at the Peroxisomal Membrane” (Frontiers in Cell and Developmental Biology, 2022).

The target of test [1] is Pex22 (Saccharomyces cerevisiae) (UniProt P39718). To be noted: cited from earlier work.
The target of test [2] is T1, Arabidopsis thaliana PEX22 residues 111-283 (soluble PEX4-interacting domain) (Arabidopsis thaliana, UniProt Q9LSX7 111-283).
T1 construct: two N-terminal residues left from the PreScission cleavage site (LEVLFQ|GP); Made on one chain with His6-MBP-PEX4 and separated from it by PreScission cleavage; also called At PEX22; source: purified (Ni-NTA), released with PreScission protease
T1 sequence: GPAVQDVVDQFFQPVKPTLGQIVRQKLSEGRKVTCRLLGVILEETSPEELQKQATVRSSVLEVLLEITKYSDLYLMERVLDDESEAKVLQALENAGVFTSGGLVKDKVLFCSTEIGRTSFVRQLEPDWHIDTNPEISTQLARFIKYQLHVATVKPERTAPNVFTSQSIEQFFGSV
As to the kind of experiment: crystal structure; PEX4-PEX22^111-283 complex from the cleaved fusion, 20 mg/mL in 20 mM Tris pH 7.5, 200 mM NaCl, 1 mM DTT; sitting drop vapor diffusion at 20°C; 100 mM NaCl, 100 mM Bis-Tris Propane pH 9.0, 25% (w/v) PEG 1,500. To be noted: both partners purified.

The target in test [3] is T1, Arabidopsis thaliana PEX22 residues …. As to the kind of experiment: pull-down; purified fusion cut with PreScission protease; His6-MBP-PEX4 or His6-MBP-pex4^P123L held on Ni-NTA resin, 1 h at 4°C; washed with buffer A (25 mM HEPES pH 8, 300 mM NaCl, 5% glycerol, 1 mM TCEP), eluted with buffer B (500 mM imidazole); SDS-PAGE and Coomassie staining. To be noted: both partners purified.

Chain of Pex22 (Saccharomyces cerevisiae) (P39718 whole entry, the tested form may be a part): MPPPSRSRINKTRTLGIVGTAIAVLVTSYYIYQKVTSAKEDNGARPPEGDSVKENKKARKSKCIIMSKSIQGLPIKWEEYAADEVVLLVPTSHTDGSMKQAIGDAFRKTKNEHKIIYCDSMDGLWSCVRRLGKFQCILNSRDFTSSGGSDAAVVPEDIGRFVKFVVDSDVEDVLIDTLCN

Usually Kd stands for the free concentration of one partner at which half of the binding sites on the other are occupied at equilibrium, for simple one-to-one binding. In the case of Pex4 (from UniProt P29340), the Kd in test [1] was 2 nM.

B1: Arabidopsis thaliana PEX4 (full-length, His6-MBP removed) (enzyme)
chain: SMQASRARLFKEYKEVQREKVADPDIQLICDDTNIFKWTALIKGPSETPYEGGVFQLAFSVPEPYPLQPPQVRFLTKIFHPNVHFKTGEICLDILKNAWSPAWTLQSVCRAIIALMAHPEPDSPLNCDSGNLLRSGDVRGFNSMAQMYTRLAAMPKKGLEVLFQ
notes: one residue left after the TEV protease cleavage site (ENLYFQ|S); residue 0 at the N-terminus; PEX4 (UBC21), Arabidopsis thaliana, At5g25760, full-length without stop codon, residues 1-157; six C-terminal residues left from the PreScission cleavage site (LEVLFQ|GP); residues 158-163; Model in PDB 6XOD holds residues 1-154; residue 0, 155-157 and 158-163 were disordered; also called At PEX4; …
Consider B1, for which the binding result in test [2] was “binds”.

B2: His6-MBP-PEX4 (Arabidopsis thaliana PEX4, full-length, after PreScission cleavage of the fusion) (enzyme)
chain: MQASRARLFKEYKEVQREKVADPDIQLICDDTNIFKWTALIKGPSETPYEGGVFQLAFSVPEPYPLQPPQVRFLTKIFHPNVHFKTGEICLDILKNAWSPAWTLQSVCRAIIALMAHPEPDSPLNCDSGNLLRSGDVRGFNSMAQMYTRLAAMPKKGLEVLFQ
notes: PEX4 (UBC21), Arabidopsis thaliana, At5g25760, full-length without stop codon; C-terminal residues left from the PreScission cleavage site (LEVLFQ|GP); His6-MBP is joined to PEX4 by a linker with an uncut TEV site (ENLYFQ|S); source: purified (Ni-NTA), cleaved with PreScission protease only; not shown: His6, N-terminal, kept; MBP, N-terminal, kept
On to B2, for which, in test [3], the binding result is “binds”.

B3: His6-MBP-pex4^P123L (pex4-1 protein, after PreScission cleavage of the fusion) (enzyme, Arabidopsis thaliana)
chain: MQASRARLFKEYKEVQREKVADPDIQLICDDTNIFKWTALIKGPSETPYEGGVFQLAFSVPEPYPLQPPQVRFLTKIFHPNVHFKTGEICLDILKNAWSPAWTLQSVCRAIIALMAHPEPDSLLNCDSGNLLRSGDVRGFNSMAQMYTRLAAMPKKGLEVLFQ
notes: PEX4 (UBC21), Arabidopsis thaliana, At5g25760, full-length without stop codon, with the pex4-1 missense change P123L; C-terminal residues left from the PreScission cleavage site (LEVLFQ|GP); pex4-1 is a missense allele isolated in a forward-genetic screen; His6-MBP is joined by a linker with an uncut TEV site (ENLYFQ|S); source: purified (Ni-NTA), cleaved with PreScission protease only; not …
As for B3, in test [3], the binding result is on record as “binds”.
